In article PMC5113810:

T1: DNA polymerase kappa core (hpol κ19-536) (Homo sapiens, UniProt Q9UBT6 19-536)
T1 sequence: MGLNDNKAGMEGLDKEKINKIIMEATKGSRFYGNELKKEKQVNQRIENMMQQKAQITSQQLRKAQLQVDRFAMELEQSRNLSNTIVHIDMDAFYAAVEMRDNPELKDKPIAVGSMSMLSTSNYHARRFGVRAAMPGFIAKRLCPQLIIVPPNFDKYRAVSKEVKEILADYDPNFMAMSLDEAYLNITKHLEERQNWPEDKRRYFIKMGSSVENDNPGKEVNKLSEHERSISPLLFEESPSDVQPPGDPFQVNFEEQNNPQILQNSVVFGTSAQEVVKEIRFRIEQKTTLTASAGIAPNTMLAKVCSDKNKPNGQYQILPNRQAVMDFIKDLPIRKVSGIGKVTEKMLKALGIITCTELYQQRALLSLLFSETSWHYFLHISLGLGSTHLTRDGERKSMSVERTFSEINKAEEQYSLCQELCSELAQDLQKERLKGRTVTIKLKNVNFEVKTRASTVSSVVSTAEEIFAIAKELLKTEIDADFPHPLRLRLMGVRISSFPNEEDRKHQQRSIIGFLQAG


Biological target: T1, DNA polymerase kappa core (hpol κ19-536)
Assay: fluorescence polarization

Binder | Kd [nM]
11/28-mer non-G4 DNA (mixed) DNA 1: ATCCTCCCCTA DNA 2: TATGTGACTATGCTGGGTAGGGGAGGAT | 86
11/28-mer G4 DNA (mixed) DNA 1: ATCCTCCCCTA DNA 2: TGGGTGGGTAGGGTGGGTAGGGGAGGAT | 15
